52 substances from US20170037111A1, “Novel peptides and combination of peptides for use in immunotherapy against ovarian cancer and other cancers” (immatics biotechnologies GmbH, priority 2015, published 2017) can be followed below.

The test deals with HLA-A*02:01 (Homo sapiens, UniProt P04439, D140Y/D185E/D98H/E176V/E277Q/G131W/G231S/I119V/I121R/I166T/I218V/L300P/L318F/N151K/N90K/P208A/P217A/Q86G/Q94H/R138H/R169H/T345S). The test can be described thus: MHC binding assay (UV-ligand exchange, β2m ELISA, peptide exchange yield). The following applies: MHC class I binding score; binding to HLA-A*02:01 ranged by peptide exchange yield (UV-ligand exchange, β2m ELISA). Put shortly: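 Peptide–HLA-A*02:01 complexes were formed by UV-mediated exchange of a UV-cleavable ligand for the test peptide. Exchange yield was measured by capturing complexes on streptavidin, detecting with HRP anti-β2m antibody (1 h, 37°C) and reading TMB absorbance at 450 nm.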

In the case of “315 (YLQDVVEQA; listed as Homo sapiens) [compound 315]”, the Peptide exchange entry was “″+++″ (≧50% = +++)”.
The entry for “316 (ILLERLWYV; listed as Homo sapiens) [compound 316]” is “″+++″ (≧50% = +++)”; for “317 (SLAALVVHV; listed as Homo sapiens) [compound 317]” it is “″+++″ (≧50% = +++)”; for “318 (GLINTGVLSV; listed as Homo sapiens) [compound 318]” it is “″++″ (≧20% = ++)”.
For the substance “320 (KMFEFVEPLL; listed as Homo sapiens) [compound 320]”, the Peptide exchange result is “″++++″ (≧75% = ++++)”.
The entry for “321 (GLFEDVTQPGILL; listed as Homo sapiens) [compound 321]” is “″++++″ (≧75% = ++++)”; for “322 (TLMTSLPAL; listed as Homo sapiens) [compound 322]” it is “″+++″ (≧50% = +++)”.
Consider “324 (FLYDEIEAEV; listed as Homo sapiens) [compound 324]”, for which the Peptide exchange result is reported as “″+++″ (≧50% = +++)”.
Turning to “325 (FIMPATVADATAV; listed as Homo sapiens) [compound 325]”, the Peptide exchange entry is “″+++″ (≧50% = +++)”.
In the case of “326 (FLPEALDFV; listed as Homo sapiens) [compound 326]” it was “″+++″ (≧50% = +++)”; in that of “327 (GLAPFTEGISFV; listed as Homo sapiens) [compound 327]”, “″+++″ (≧50% = +++)”; in that of “328 (ALNDQVFEI; listed as Homo sapiens) [compound 328]”, “″+++″ (≧50% = +++)”.
Take “329 (FLVTLNNVEV; listed as Homo sapiens) [compound 329]”: the Peptide exchange result is recorded as “″++++″ (≧75% = ++++)”.
As for “330 (QLALKVEGV; listed as Homo sapiens) [compound 330]”, the Peptide exchange result is listed as “″+++″ (≧50% = +++)”.
“331 (KVDTVWVNV; listed as Homo sapiens) [compound 331]”: the Peptide exchange entry was “″+++″ (≧50% = +++)”.
Consider “332 (YLISELEAA; listed as Homo sapiens) [compound 332]”, for which the Peptide exchange result is on record as “″+++″ (≧50% = +++)”.
As for “333 (FLPDANSSV; listed as Homo sapiens) [compound 333]”, the Peptide exchange entry was “″++″ (≧20% = ++)”.
Take “334 (TLTKVLVAL; listed as Homo sapiens) [compound 334]”: the Peptide exchange entry is listed as “″+++″ (≧50% = +++)”.
With “335 (YSLSSVVTV; listed as Homo sapiens) [compound 335]”, the Peptide exchange result is given as “″+++″ (≧50% = +++)”.
With “336 (ILLTAIVQV; listed as Homo sapiens) [compound 336]”, the Peptide exchange entry was “″+++″ (≧50% = +++)”.
For “337 (HLLSELEAAPYL; listed as Homo sapiens) [compound 337]”, the Peptide exchange entry is listed as “″++++″ (≧75% = ++++)”.
With “339 (GLWEIENNPTVKA; listed as Homo sapiens) [compound 339]”, the Peptide exchange entry is recorded as “″++++″ (≧75% = ++++)”.
For “340 (ALLSMTFPL; listed as Homo sapiens) [compound 340]”, the Peptide exchange result is “″++++″ (≧75% = ++++)”.
In the case of “341 (SQIALNEKLVNL; listed as Homo sapiens) [compound 341]”, the Peptide exchange result is on record as “″+++″ (≧50% = +++)”.
In the case of “342 (HIYDKVMTV; listed as Homo sapiens) [compound 342]” it was “″+++″ (≧50% = +++)”; in that of “343 (SLLEVNEESTV; listed as Homo sapiens) [compound 343]”, “″+++″ (≧50% = +++)”.
In the case of “344 (YLQDQHLLLTV; listed as Homo sapiens) [compound 344]” it was “″+++″ (≧50% = +++)”.
In the case of “345 (VIWKALIHL; listed as Homo sapiens) [compound 345]” it was “″+++″ (≧50% = +++)”; in that of “346 (LLDSKVPSV; listed as Homo sapiens) [compound 346]”, “″+++″ (≧50% = +++)”.
With “347 (SLFKHDPAAWEA; listed as Homo sapiens) [compound 347]”, the Peptide exchange entry is listed as “″++++″ (≧75% = ++++)”.
“348 (ILLDVKTRL; listed as Homo sapiens) [compound 348]”: the Peptide exchange entry is “″++++″ (≧75% = ++++)”.
Take “349 (SLTEYLQNV; listed as Homo sapiens) [compound 349]”: the Peptide exchange result is “″++++″ (≧75% = ++++)”.
The entry for “350 (ALLDVTHSELTV; listed as Homo sapiens) [compound 350]” is “″+++″ (≧50% = +++)”.
The entry for “351 (SLIPNLRNV; listed as Homo sapiens) [compound 351]” is “″+++″ (≧50% = +++)”.
For the substance “352 (SLLELLHIYV; listed as Homo sapiens) [compound 352]”, the Peptide exchange entry is on record as “″+++″ (≧50% = +++)”.
Regarding “353 (YLFEMDSSL; listed as Homo sapiens) [compound 353]”, the Peptide exchange result is listed as “″++″ (≧20% = ++)”.
In the case of “354 (LILEGVDTV; listed as Homo sapiens) [compound 354]”, the Peptide exchange entry is reported as “″++″ (≧20% = ++)”.
“355 (SIQQSIERLLV; listed as Homo sapiens) [compound 355]”: the Peptide exchange result is listed as “″++″ (≧20% = ++)”.
For “356 (KLLGKLPEL; listed as Homo sapiens) [compound 356]”, the Peptide exchange entry is “″+++″ (≧50% = +++)”.
Take “357 (SMHDLVLQV; listed as Homo sapiens) [compound 357]”: the Peptide exchange result is given as “″+++″ (≧50% = +++)”.
“358 (ALDEYTSEL; listed as Homo sapiens) [compound 358]”: the Peptide exchange result is “″++++″ (≧75% = ++++)”.
For “359 (YLLPESVDL; listed as Homo sapiens) [compound 359]”, the Peptide exchange entry is “″+++″ (≧50% = +++)”.
In the case of “361 (ALYELEGTTV; listed as Homo sapiens) [compound 361]” it was “″+++″ (≧50% = +++)”; in that of “362 (TLYGLSVLL; listed as Homo sapiens) [compound 362]”, “″+++″ (≧50% = +++)”.
In the case of “363 (KVLDVSDLESV; listed as Homo sapiens) [compound 363]”, the Peptide exchange result was “″++″ (≧20% = ++)”.
Turning to “364 (LLQNEQFEL; listed as Homo sapiens) [compound 364]”, the Peptide exchange entry is given as “″+++″ (≧50% = +++)”.
In the case of “365 (YVIDQGETDVYV; listed as Homo sapiens) [compound 365]”, the Peptide exchange result is “″+++″ (≧50% = +++)”.
The entry for “366 (RLLDMGETDLML; listed as Homo sapiens) [compound 366]” is “″+++″ (≧50% = +++)”; for “367 (SLQNHNHQL; listed as Homo sapiens) [compound 367]” it is “″+++″ (≧50% = +++)”.
Take “369 (GLFPEHLIDV; listed as Homo sapiens) [compound 369]”: the Peptide exchange entry was “″+++″ (≧50% = +++)”.
For the substance “370 (SLLQDLVSV; listed as Homo sapiens) [compound 370]”, the Peptide exchange entry is reported as “″+++″ (≧50% = +++)”.
“371 (FLQAHLHTA; listed as Homo sapiens) [compound 371]”: the Peptide exchange result was “″++++″ (≧75% = ++++)”.
